The results in this text go back to publication PMC5987543.

This assay deals with α-synuclein, P37840. Description: SPR; Biacore X100; monomeric α-syn immobilised on a streptavidin-coated chip; S100A9 injected at increasing concentrations in a single cycle; HBS-P+ (10 mM HEPES, 150 mM NaCl, 0.001% P20), pH 7.4, 25 °C; steady-state fit Rc = C*Rmax/(Kd + C); apparent; three repeats. Conditions: remark: other sources report otherwise.

B1: S100A9, P06702 1-114 (natural protein)
chain: MTCKMSQLERNIETIINTFHQYSVKLGHPDTLNQGEFKELVRKDLQNFLKKENKNEKVIEHIMEDLDTNADKQLSFEEFIMLMARLTWASHEKMHEGDEGPGHHHKPGLGEGTP
For B1, the Kd was determined as 5 µM.
